Target: full-length epidermal growth factor receptor (EGFR) with a SNAP tag at the C-terminal position, embedded in a lipid bilayer nanodisc (UniProt P00533)

B1: Human epigen (ligand)
chain: AAVTVTPPITAQQGNWTVNKTEADNIEGPIALKFSHLCLEDHNSYCINGACAFHHELEKAICRCFTGYTGERCEHLTLTSYAVDSYEKYIAIGIGVGLLLSGFLVIFYCYIRKRCLKLKSPYNVCSGERRPL
- smFRET donor fluorescence lifetime of WT EGFR in nanodiscs (both bilayers) with 1 μM epigen; peak of the distribution: 1.5 ns

From paper PMC9259572
